Data as given in the RNAGym collection of RNA variant scans (doi:10.1021/acssynbio.7b00057).

B1: Pistol ribozyme (parent)
chain: GGGUCGUUGUUCCAUAAUCGCGUGGAUAUGGCACGCAAGUUUCUACCGGGCACCGUAAAUGUCCGACUGGAGCCGUUCGGGCGGCUAUAAACAGACCUCAGGCCCGAAGCGUGGCGGCACCUGCCGCCGGUGGUAAAAAAGAUCGGAAGAGCACACGUCU

Variants of: B1
Assay: aptazyme ON/OFF ratio, guanine; higher = stronger switching; co-transcriptional cleavage with and without guanine

| Variant | aptazyme ON/OFF ratio |
| --- | --- |
| U8C G9C U10C U11G C12A C13G | 1.16 |
| U7A U8A G9C U10C U11G C12G C13U | 1.08 |
| U7C U8G G9U U10A C12G C13U | 1.21 |
| U7G G9C U10G U11C C12G C13G | 1.07 |
| U7C U8C G9C U11A C12G C13A | 1.07 |
| U7A G9C U10C U11A C12G C13A | 1.16 |
| U7G U8C G9C U11A C12U C13G | 1.13 |
| U7G U8A G9U U10C U11G C12U | 1.35 |
| U8G G9U U11A C12A C13A | 1.18 |
| U7C U8C G9A U10A U11G C12U C13U | 1.16 |
| U7A U8G U11C C12G C13G | 1.17 |
| U7G U8G G9A U10C U11G C12G C13G | 1.14 |
| U7G U8A G9U U10A U11C C12U C13U | 1.01 |
| U8C G9U U11A C12U C13A | 1.36 |
| U7A U8A G9U U10A U11A C12U | 1.34 |
| U7G U8A G9A U10G C12U C13U | 1.13 |
| U7G U8G G9U U10C U11G C12U C13A | 1.23 |
| U7G U10G C12U C13A | 1.18 |
| U7A U8G G9C U10C U11C C12U | 0.975 |
| U7A U8C G9A U11A C13G | 1.09 |
| U8G G9C U10A U11G C12U C13U | 1.17 |

| Variant | aptazyme ON/OFF ratio |
| --- | --- |
| U7G U8A G9A U10C U11G C12G C13A | 1.2 |
| U7A U8C U10A U11C C13A | 1.05 |
| U8G G9A U10C U11G C12A C13G | 1.18 |
| U8G G9U U10G U11G C13G | 1.03 |
| U7A U8G G9C U10G U11C C12A C13A | 1.38 |
| U7G U8A G9U U10A U11G C12A | 1.06 |
| U7G U8G U10A U11G C13U | 1.33 |
| U7G G9C U11G C12G C13G | 1.36 |
| U8A G9U U10C U11A C12U C13U | 1.15 |
| U7C U8G G9A U10A C12G | 1.18 |
| U7A U8G U10G U11A C13G | 1.27 |
| U7C U8A G9U U11A C12U C13G | 1.23 |
| U7G U8C G9C U10C U11C C12A C13G | 1.21 |
| U7A G9C U10C U11A C12A | 1.06 |
| U7G U8G G9A U10A U11G C12U | 1.22 |
| U7A U8C G9C U10G U11C C12G C13A | 1.18 |
| U7C U8C G9C U10A U11C C12A C13U | 1.13 |
| U7G U8G G9C U10G U11C C12A | 1.25 |
| U7A U8G G9C U10A U11A C12A C13G | 1.35 |
| U7A U8C U10C U11A C12U | 1.19 |
| U8G G9C U10C C12G C13U | 1.08 |

| Variant | aptazyme ON/OFF ratio |
| --- | --- |
| U7C U8C G9U U10A C12G C13G | 1.12 |
| U8C U10C U11C C12G C13A | 1.29 |
| U8G U10A U11A C12G C13A | 1.12 |
| U7A U8C G9A U11G C12U C13A | 1.28 |
| U7G U8G U10G U11G C13G | 1.13 |
| U7C U8G G9C U10A U11C C12A C13A | 1.19 |
| U7C U8G G9C U10C C12A C13G | 1.1 |
| U7G G9A U10C U11G C13U | 1.14 |
| U7A U8G G9U U10C U11G C13G | 1.38 |
| U7G U8C G9U U10G U11A C12U C13G | 1.23 |
| U7C U8A G9C U10C | 2.31 |
| U7A G9U U10A U11C C13G | 1.07 |
| U7G U8C G9C U10G U11A C13A | 1.05 |
| U7A U8G G9A U10G C12A C13A | 1.39 |
| G9C U11A C12U | 1.53 |
| U7C U8C G9U U10C U11G C12U C13A | 1.09 |
| U7C U8A G9C U11G C13G | 1.05 |
| U7C U8A G9C U10G C13U | 1.35 |
| U7A U8A G9C U10G U11C C12U | 1.13 |
| U8C G9C U10C U11A C12U C13U | 1.01 |
| U7G U8A G9A U10G U11C C13G | 1.08 |

| Variant | aptazyme ON/OFF ratio |
| --- | --- |
| U7C U8G G9C U10C U11C C12A | 1.04 |
| U7C U8C G9C U10C U11A C12U | 1.02 |
| U7G G9C U10A U11G C12U C13U | 1.26 |
| U7G U8A U10A U11G C13U | 1.38 |
| U8C G9U U10A U11G C12A C13U | 1.26 |
| U7G G9U U10A U11G C13U | 1.29 |
| U8G G9C U10G U11C C13G | 1.02 |
| U8A G9C U10A U11A C12A C13G | 1.19 |
| U7A G9U C12U C13A | 1.19 |
| U7G G9C U10A U11A C12U C13U | 1.29 |
| U7G U8G G9A U10C U11C C12U C13A | 1.04 |
| U7C U8C G9C U10A U11C C12U C13U | 1.17 |
| U7A U8A G9C U10A U11G C12U | 1.22 |
| U7A U10G C12G C13G | 1.08 |
| U7A U8A U10A U11C C12U | 1.03 |
| U7A U10G C13G | 1.23 |
| U7G U8A G9A U10A U11C C12G C13U | 1.1 |
| G9A U10C U11G C12G C13A | 1.17 |
| U7G U8A U10G | 1.28 |
| U8G G9U U10C C12A | 1.19 |
